The subject of experiment [1] is CpGs of the hMLH1 promoter region. Description: Bisulfite conversion and sequencing of hMLH1 promoter. Format: cell-based, human. The note with it: HEK293T; Casilio-ME days 3-6 post transfection; AzaC treatment for 6 days. From the text: Casilio-mediated delivery of demethylation enzymes alters methylation state of targeted genomic locus. Evidence that the shown Casilio-ME-induced activation of hMLH1 transcription is a result of TET1-mediated cytosine demethylation within the targeted promoter region came from DNA sequencing of hMLH1 promoter after bisulfite conversion. Bisulfite treatment of genomic DNA deaminates unmethylated cytosines to produce uracils that are subsequently replicated as thymine. However, methylated cytosines are protected from conversion to uracils, thus allowing one to determine cytosine methylation states at single-nucleotide resolution by direct sequencing.
To assess changes in methylation states of CpG island within hMLH1 promoter region after Casilio-ME-mediated transcription activation, time course experiment were carried out where cells were collected 3, 4, 5, and 6 days post transfection, for analysis of cytosine methylation as well as transcription activation, and protein expression. HEK293T were transfected with Casilio-ME components that includes Ct-fusion PUFa-TET1 effector and a combination of 2 sgRNAs (RNA guides 3 and 7).
Bisulfite conversion and sequencing. Genomic DNAs were extracted using all AllPrep DNA/RNA/Protein Mini Kit according the manufacturer's instructions (Qiagen). […]

The test system of experiment [2] is TetO::tdTomato transgene in HEK293T/TetO::tdTomato cell line. Description: TetO::tdTomato transgene activation measured by FACS. Format: cell-based. The note with it: for transgene activation with higher PBS copy numbers: 15, 20, and 47 copies of PBS. The source says:
In particular, to test whether appending PBS to the 3′ end of sgRNA affects sgRNA function, a series of modified Tet-targeting (sgTetO) or non-targeting control (sgControl) sgRNA were generated, […] domain-binding sequence (PBS) for PUF (3-2) (also simply referred to as PUFa) [PBS32 or PBSa: SEQ ID NO:8 (5′-UGUAUgUA-3′)], PUF(6-2/7-2) (also simply referred to as PUFb) [PBS6272 or PBSb: SEQ ID NO:9 (5′-UugAUAUA-3′)].
Cells were transfected with dCas9-VP64 with the different sgRNA scaffolds, and were analyzed by fluorescent-activated cell sorting (FACS) two days after transfection (FIG. 1B).
Cell Culture for Experiments. HEK293T cells were cultivated in Dulbecco's modified Eagle's medium (DMEM)(Sigma) with 10% fetal bovine serum (FBS)(Lonza), 4% Glutamax (Gibco), 1% Sodium Pyruvate (Gibco) and penicillin-streptomycin (Gibco). Incubator conditions were 37° C. and 5% CO2. For activation experiments, cells were seeded into 12-well plates at 100,000 cells per well the day before being transfected with 200 ng of dCas9 construct, 100 ng of modified sgRNA and 100 ng of PUF-fusion with Attractene transfection reagent (Qiagen). After transfection, cells were grown for 48 hrs and harvested for either RNA extraction or fluorescent-activated cell sorting (FACS). For dual activation-repression experiments, transfection remained the same, however cells were seeded into 12-well plates at 150,000 cells per well and were grown for 72 hrs before being harvested for FACS. For experiments with OCT4 and SOX2 dual activation-repression, cells were triple-sorted by BFP (for the activator-repressor module PUFb-p65HSF1/BFPKRAB-PUFa), mCherry (for dCas9mCherry) and GFP (for the sgRNA-PBS on vectors co-expressing EGFP) before RNA extraction. […]
Fluorescent-Activated Cell Sorting. […] Samples were analyzed on a FACScalibur flow cytometer using CellQuest Pro software (BD Bioscience). […] were collected in each run.
On the technique in general: In flow cytometry, cells or beads pass a laser one at a time.

In experiment [3] the test system is 5′-UGUGUGUG-3′ RNA (SEQ ID NO:13). The note with it: cited from earlier work.
In experiment [4] the test system is SOX2 gene expression (SOX2 promoter) in HEK293T cells. Description: SOX2 expression by quantitative reverse-transcription PCR after Dnmt effector targeting. The experiment is classed as cell-based. The note with it: guides targeting SOX2 promoter, compared to direct dCas9 fusions. The method, then:
Establishment of a dCas9-expressing cell line. The day prior to transfection, Lenti-X 293T cells were seeded into 6-well plates at 1.2 million cells per well. The cells were transfected with the supercoiled packaging plasmids (pLP1 (gag/pol), pLP2 (rev), and VSV-G (envelope)) and a dCas9 lentiviral expression plasmid through Lipofectamine 3000 reagent (Invitrogen). At 6 h posttransfection, medium was exchanged for fresh. At 24 h posttransfection, 2 ml of medium containing the lentivirus were collected and centrifuged for 10 minutes at 2,000 rpm to remove cellular debris. The supernatant was filtered utilizing a […] pore filter (Millipore), and the lentivirus was frozen at −80° C. until needed. HEK293T cells, seeded into a 12-well plate at 150,000 cells per well, were transduced with 500 μl of the dCas9 lentivirus in culture medium supplemented with 5 μg/ml polybrene for 12 hours, and subsequently selected with Blasticidin antibiotics on the third day post transduction.
Transfection. HEK293T, and HEK293T/dCas9 cell lines were seeded into 12-well plates at 150,000 cells per well. […] At 3 day post-transfection, the cells were sorted for GFP (sgRNA expression constructs are marked by GFP) with fluorescence-activated cell sorting (FACS) and re-plated into 12 or 24-well plates.
Quantitative reverse-transcription PCR. […]

Where a chain is given by its changes, count along the chain named. Names may count otherwise.

With `Nc1ncn([C@@H]2O[C@H](CO)[C@@H](O)[C@H]2O)c(=O)n1` [5′azacytidine, 5-Azacytidine], in experiment [1], the “frequency of bisulfite conversion (cytosine demethylation) at CpGs of hMLH1 promoter” value was “increased bisulfite conversion frequency on multiple CpG sites within the promoter region”.

B1: PUFa-VP64: NLS-PUFa-VP64 fusion; SEQ ID NO:32 (protein)
chain: MGILPPKKKRKVSRGRSRLLEDFRNNRYPNLQLREIAGHIMEFSQDQHGSRFIQLKLERATPAERQLVFNEILQAAYQLMVDVFGNYVIQKFFEFGSLEQKLALAERIRGHVLSLALQMYGSRVIEKALEFIPSDQQNEMVRELDGHVLKCVKDQNGNHVVQKCIECVQPQSLQFIIDAFKGQVFALSTHPYGCRVIQRILEHCLPDQTLPILEELHQHTEQLVQDQYGNYVIQHVLEHGRPEDKSKIVAEIRGNVLVLSQHKFASNVVEKCVTHASRTERAVLIDEVCTMNDGPHSALYTMMKDQYANYVVQKMIDVAEPGQRKIVMHKIRPHIATLRKYTYGKHILAKLEKYYMKNGVDLGGPAGSGRADALDDFDLDMLGSDALDDFDLDMLGSDALDDFDLDMLGSDALDDFDLDMLYID
Take B1: in experiment [2], the “transgene activation with higher PBS copy numbers” value is listed as “slightly lower, albeit still substantial transgene activation”. Moreover, the “activation of TetO::tdTomato with only one PBSa” value in experiment [2] (sgRNA with one PBSa) is given as “not observed”.

B2: PUFb-VP64: NLS-PUFb-VP64 fusion; SEQ ID NO:33 (protein)
chain: B1 chain with S122C, E126Q, N230S, Q234E, S266N, E270Q
For the molecule B2, the “transgene activation with higher PBS copy numbers” value in experiment [2] was “slightly lower, albeit still substantial transgene activation”.

B3: PUF^531: PUF domain with mutations Q867E/Q939E/C935S/Q1011E/C1007S; SEQ ID NO:22 (protein)
chain: GRSRLLEDFRNNRYPNLQLREIAGHIMEFSQDQHGSRFIELKLERATPAERQLVFNEILQAAYQLMVDVFGNYVIQKFFEFGSLEQKLALAERIRGHVLSLALQMYGSRVIEKALEFIPSDQQNEMVRELDGHVLKCVKDQNGNHVVQKCIECVQPQSLQFIIDAFKGQVFALSTHPYGSRVIERILEHCLPDQTLPILEELHQHTEQLVQDQYGNYVIQHVLEHGRPEDKSKIVAEIRGNVLVLSQHKFASNVVEKCVTHASRTERAVLIDEVCTMNDGPHSALYTMMKDQYANYVVQKMIDVAEPGQRKIVMHKIRPHIATLRKYTYGKHILAKLEKYYMKNGVDLG
B3: the “affinity for new target RNA sequence compared to wild type PUF RNA” value in experiment [3] is on record as “very high affinity”.

B4: Dnmt3a-PUF: Dnmt3a catalytic region fused to N-terminus of PUFa; SEQ ID NO:65 (protein)
chain: MGPANHDQEFDPPKVYPPVPAEKRKPIRVLSLFDGIATGLLVLKDLGIQVDRYIASEVCEDSITVGMVRHQGKIMYVGDVRSVTQKHIQEWGPFDLVIGGSPCNDLSIVNPARKGLYEGTGRLFFEFYRLLHDARPKEGDDRPFFWLFENVVAMGVSDKRDISRFLESNPVMIDAKEVSAAHRARYFWGNLPGMNRPLASTVNDKLELQECLEHGRIAKFSKVRTITTRSNSIKQGKDQHFPVFMNEKEDILWCTEMERVFGFPVHYTDVSNMSRLARQRLLGRSWSVPVIRHLFAPLKEYFACVIDGGGGSDPKKKRKVDPKKKRKVDPKKKRKVGSTGSRNDGGGGSGGGGSGGGGSGRAGILPPKKKRKVSRGRSRLLEDFRNNRYPNLQLREIAGHIMEFSQDQHGSRFIQLKLERATPAERQLVFNEILQAAYQLMVDVFGNYVIQKFFEFGSLEQKLALAERIRGHVLSLALQMYGSRVIEKALEFIPSDQQNEMVRELDGHVLKCVKDQNGNHVVQKCIECVQPQSLQFIIDAFKGQVFALSTHPYGCRVIQRILEHCLPDQTLPILEELHQHTEQLVQDQYGNYVIQHVLEHGRPEDKSKIVAEIRGNVLVLSQHKFASNVVEKCVTHASRTERAVLIDEVCTMNDGPHSALYTMMKDQYANYVVQKMIDVAEPGQRKIVMHKIRPHIATLRKYTYGKHILAKLEKYYMKNGVDLGDPKKKRKVDPKKKRKVGGRGGGGSGGGGSGGGGSGPA
As for B4, the “repression of SOX2 gene expression” value in experiment [4] was “more robust repression of SOX2 gene expression compared to direct fusions”.

The values are drawn from US20190218261A1, “TARGETED ENHANCED DNA DEMETHYLATION” (The Jackson Laboratory, priority 2016, published 2019).
